The source of these data is article PMC6210734, “Unliganded Progesterone Receptor Governs Estrogen Receptor Gene Expression by Regulating DNA Methylation in Breast Cancer Cells”.

The target in series [1] is T1, Progesterone receptor isoform B (PR-B) (Homo sapiens, UniProt P06401 1-933). As to the kind of experiment: EMSA; EMSA: 20 min at room temperature, 5% acrylamide-bisacrylamide gel; buffer, salt and pH not stated. Conditions: protein: recombinant; chain copies: 2; (radioactive); blunt.
The target of series [2] is T1, Progesterone receptor isoform B (PR-B). As to the kind of experiment: competition; 100-fold unlabeled competitor vs labeled no-CpG PRE, 2.4 ug PR-B; high-affinity competitor; EMSA: 20 min at room temperature, 5% acrylamide-bisacrylamide gel; buffer, salt and pH not stated. Conditions: protein: recombinant; chain copies: 2; (radioactive); blunt. On the technique in general: Mobility shift assays separate free from complexed probe on a gel.

T1 sequence (P06401 whole entry, canonical isoform): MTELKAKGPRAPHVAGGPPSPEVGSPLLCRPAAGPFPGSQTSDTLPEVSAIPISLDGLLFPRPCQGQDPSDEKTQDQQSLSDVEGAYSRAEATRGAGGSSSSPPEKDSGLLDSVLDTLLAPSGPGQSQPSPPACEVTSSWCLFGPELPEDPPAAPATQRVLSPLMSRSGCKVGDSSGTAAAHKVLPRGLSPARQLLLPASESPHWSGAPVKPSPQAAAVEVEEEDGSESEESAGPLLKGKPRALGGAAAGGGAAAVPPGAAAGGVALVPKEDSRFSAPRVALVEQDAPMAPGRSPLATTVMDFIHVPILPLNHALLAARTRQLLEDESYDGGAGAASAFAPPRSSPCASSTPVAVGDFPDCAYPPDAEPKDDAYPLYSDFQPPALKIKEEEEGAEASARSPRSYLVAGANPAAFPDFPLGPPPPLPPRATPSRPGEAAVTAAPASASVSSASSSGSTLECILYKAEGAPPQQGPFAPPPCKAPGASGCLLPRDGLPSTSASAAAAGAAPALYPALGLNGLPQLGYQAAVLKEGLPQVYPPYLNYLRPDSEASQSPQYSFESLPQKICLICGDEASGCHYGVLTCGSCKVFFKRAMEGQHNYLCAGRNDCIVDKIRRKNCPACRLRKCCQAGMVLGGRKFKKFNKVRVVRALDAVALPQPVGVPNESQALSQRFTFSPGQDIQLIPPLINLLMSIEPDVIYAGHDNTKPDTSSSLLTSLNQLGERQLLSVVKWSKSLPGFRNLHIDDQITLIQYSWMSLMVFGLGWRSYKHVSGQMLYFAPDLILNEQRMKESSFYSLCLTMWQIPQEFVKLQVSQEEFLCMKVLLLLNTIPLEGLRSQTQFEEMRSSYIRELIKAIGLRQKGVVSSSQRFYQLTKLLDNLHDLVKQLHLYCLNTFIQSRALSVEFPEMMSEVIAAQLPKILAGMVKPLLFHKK

B1: PRE no CpG (dsDNA)
DNA 1: GTTGAGTCAGAACAGTTTGTTCTCTAGGCAC
DNA 2: GTGCCTAGAGAACAAACTGTTCTGACTCAAC
B1: the binding result in series [1] is on record as “binds”.

B2: PRE two CpGs, unmethylated (dsDNA)
DNA 1: GTTGAGTCAGAACGGTTCGTTCTCTAGGCAC
DNA 2: GTGCCTAGAGAACGAACCGTTCTGACTCAAC
As for B2, the binding result in series [2] is recorded as “binds”.
